Assay results: US20230303681A1 (published 2023)

Assays:
[1] = target: T1, cynomolgus (cyno) TMEM106B (cynomolgus, UniProt Q9NUM4 2-274 (human entry)); test: FACS, HEK293 transfectants;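 further: flow cytometry binding of hybridoma supernatants to HEK293 cells transiently expressing human, cyno or mouse TMEM106B, read as anti-mouse-APC median fluorescence, live cells only, 30 min on ice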
T1 construct: on transiently transfected HEK293 cells
Method: (§1) For screening of the hybridoma cell culture supernatants, humanTMEM106B-transfected HEK293 cells were aliquoted in 96-well round bottom plates (2x10^5 cells per well) and incubated with 50 µL of hybridoma cell culture supernatant on ice for 30 minutes. […] Median fluorescence intensity (MFI) of anti-mouse-APC MFI on TMEM106B+ HEK293 cells was calculated for each clone, and those displaying a signal of at least 2-fold over background compared to a secondary-antibody only well were taken forward for further analysis and characterization.

human TMEM106B [2] = target: T2, human TMEM106B (human, UniProt Q9NUM4 2-274); test: FACS, HEK293 transfectants;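 on fold over negative controls: hybridoma supernatants incubated 30 min on ice with human TMEM106B-expressing HEK293 cells, binding read as anti-mouse-APC median fluorescence on live cells, relative to secondary-antibody-only wells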;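 on fold-change over parental HEK293: flow cytometry binding of hybridoma supernatants to HEK293 cells transiently expressing human, cyno or mouse TMEM106B, read as anti-mouse-APC median fluorescence, live cells only, 30 min on ice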
T2 construct: Full-length, on transiently transfected HEK293 cells, or natively expressed on HeLa, U251 and A549 cells; also called huTMEM106B; huTMEM
Method: as §1

mouse TMEM106B [3] = target: T3, mouse TMEM106B (mouse, UniProt Q80X71 2-275); test: FACS, HEK293 transfectants;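 further: flow cytometry binding of hybridoma supernatants to HEK293 cells transiently expressing human, cyno or mouse TMEM106B, read as anti-mouse-APC median fluorescence, live cells only, 30 min on ice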
T3 construct: on transiently transfected HEK293 cells, or natively expressed on mouse Neuro2a cells; also called moTMEM106B; murine TMEM106B
Method: as §1

human TMEM106B [4] = target: T2, human TMEM106B; test: FACS HEK+huTMEM, 0.1 ug/ml;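 further: flow cytometry binding of purified mouse IgG antibodies to HEK293 cells transiently expressing TMEM106B, read as median fluorescence intensity with propidium iodide positive dead cells gated out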
human TMEM106B [5] = target: T2, human TMEM106B; test: FACS A549
Method: (§2) All cells were cultured in either T75 or T150 flasks. […] The enzyme was quenched by addition of fresh media, and the cells were then distributed into 96-well plates for FACS analysis.
(§3) FACS analysis was performed as follows. Each cell type was aliquoted in 96-well round bottom plates (2x10^5 cells per well), washed once with FACS buffer (PBS + 2% FBS + 1 mM EDTA), and incubated with 50 µL of hybridoma supernatant or purified antibody (10 µg/ml in FACS buffer) on ice for 1 hour. […] Following this secondary incubation, the cells were again washed 2x with ice-cold FACS buffer and resuspended in a final volume of 50 µL of FACS buffer + 0.25 µl/well propidium iodide (Fisher Scientific # BDB556463). Analysis was performed on a FACSCanto system (BD Biosciences) or iQue (Intellicyt), with sort gates drawn to exclude dead (i.e., propidium iodide positive) cells.
(§4) Data is presented as mean fluorescence intensity (MFI).

human TMEM106B [6] = target: T2, human TMEM106B; test: FACS U251;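 further: flow cytometry of cells exposed to antibody (purified at 10 µg/mL, or hybridoma supernatant) for 1 h on ice, with propidium iodide-positive dead cells gated out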
Method: as §2, §3, §4

human TMEM106B [7] = target: T2, human TMEM106B; test: FACS A549, 1 ug/ml
[8] = target: T4, GST-fusion human TMEM106B truncated (human); test: epitope binning, array SPR (Community 3, Bin 5)
T4 construct: also called GST-TMEM106B-truncated protein; GST-TMEM106B (truncated)
Method: Epitope binning of the anti-TMEM106B antibodies was performed by Carterra (Salt Lake City, Nevada, USA) using a pre-mix epitope binning approach.

human TMEM106B [9] = target: T2, human TMEM106B; test: FACS HEK+huTMEM, 1.0 ug/ml
Method: (§5) Purified anti-TMEM106B antibodies were evaluated for their binding affinity to various TMEM106B-expressing cell lines including HEK293 transiently transfected with human/cyno/mouse TMEM106B, as well as HeLa cells and A549 cells. Antibodies tested for this experiment were mouse IgGs purified from hybridoma supernatant. Affinity binding to cells was determined as follows. Briefly, 1x10^5 cells were aliquoted per well in 96-well round bottom plates and incubated with 50 µL of purified anti-TMEM106B antibody at various concentrations (10x dilutions starting at 10 µg/ml) in FACS buffer (PBS + 2% FBS + 1 mM EDTA). […] Sorting was performed on a iQue (Intellicyt), with sort gates drawn to exclude dead (propidium iodide +) cells. Binding data was analyzed using median fluorescent intensity (MFI) and graphed in Prism. Values presented are MFI.

human TMEM106B [10] = target: T2, human TMEM106B; test: FACS HEK+huTMEM, 0.01 ug/ml
Method: as §5

human TMEM106B [11] = target: T2, human TMEM106B; test: FACS HEK+huTMEM, 10 ug/ml;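 further: purified mouse IgG antibodies at 10 µg/ml bound to HEK293 cells transiently expressing human TMEM106B, measured by flow cytometry as median fluorescence intensity of propidium iodide negative live cells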
Method: as §5

GST (Pierce) [12] = target: T5, GST (Pierce) (UniProt P08515 1-218 = GST, limits assumed); test: array SPR, Ab immobilised
T5 construct: control for the GST part of the fusion protein; also called GST protein; Glutathione-S-transferase

human TMEM106B [13] = target: T2, human TMEM106B; test: FACS, HEK293 transfectants; remark: listed apart in the source;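 on fold over negative controls: hybridoma supernatants incubated 30 min on ice with human TMEM106B-expressing HEK293 cells, binding read as anti-mouse-APC median fluorescence on live cells, relative to secondary-antibody-only wells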;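 on fold-change over parental HEK293: flow cytometry binding of hybridoma supernatants to HEK293 cells transiently expressing human, cyno or mouse TMEM106B, read as anti-mouse-APC median fluorescence, live cells only, 30 min on ice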
Method: Initial screening of the anti-TMEM106B hybridomas was performed as follows.
For screening of the hybridoma cell culture supernatants, humanTMEM106B-transfected HEK293 cells were aliquoted in 96-well round bottom plates (2x10^5 cells per well) and incubated with 50 µL of hybridoma cell culture supernatant on ice for 30 minutes. […] Cell sorting was performed on a FACS Canto system (BD Biosciences) or iQue (Intellicyt), with sort gates drawn to exclude dead (i.e., propidium iodide-positive) cells. Median fluorescence intensity (MFI) of anti-mouse-APC MFI on TMEM106B+ HEK293 cells was calculated for each clone, and those displaying a signal of at least 2-fold over background compared to a secondary-antibody only well were taken forward for further analysis and characterization.

mouse TMEM106B [14] = target: T3, mouse TMEM106B; test: FACS Neuro2a;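 further: flow cytometry of cells stained with antibody or hybridoma supernatant (purified antibody at 10 µg/ml) for 1 h on ice, propidium iodide–positive dead cells gated out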
human TMEM106B [15] = target: T2, human TMEM106B; test: FACS HeLa;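 further: flow cytometry of cells incubated with hybridoma supernatant or purified antibody at 10 µg/ml for 1 h on ice, propidium iodide–positive dead cells gated out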
human TMEM106B [16] = target: T2, human TMEM106B; test: FACS A549, 10 ug/ml
GST (Pierce) [17] = target: T5, GST (Pierce); test: ELISA, coated GST;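 further: ELISA on plates coated with GST alone at 1-10 µg/ml, antibodies applied at 100-1000x dilution, bound antibody detected by peroxidase substrate colour after acid stop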

| Binder | fold-change over parental HEK293 [1] | fold-change over parental HEK293 (human TMEM106B [2]) | fold-change over parental HEK293 (mouse TMEM106B [3]) | MFI (human TMEM106B [4]) | MFI (human TMEM106B [5]) | MFI (human TMEM106B [6]) | MFI (human TMEM106B [7]) | binding result [8] | MFI (human TMEM106B [9]) | MFI (human TMEM106B [10]) | MFI (human TMEM106B [11]) | binding result (GST (Pierce) [12]) | fold over negative controls (human TMEM106B [13]) | MFI (mouse TMEM106B [14]) | MFI (human TMEM106B [15]) | MFI (human TMEM106B [16]) | binding result (GST (Pierce) [17]) |
| --- | --- | --- | --- | --- | --- | --- | --- | --- | --- | --- | --- | --- | --- | --- | --- | --- | --- |
| anti-TMEM106B antibody TM-14 (antibody, V domains shown, mouse IgG from hybridoma) VH: QVQLQQSGPELVRPGTSVKVSCKASGYAFTNYLIEWVKQRPGQGLEWIGVINPGGGNTDYSEKFKDKATLTADKSSNTAYIQLSSLTSEDSAVYFCARSPYSSYVGYAVDYWGQGTSVTVSS VL: DIQMTQSPSSLSASLGERVSLTCRASQDIGSNLNWLQQEPDGTIKRLIYATSSLDSGVPKRFSGSRSGSDYSLTISSLESEDFVVYYCLQYASSPRTFGGGTRLEIK | 4.56 fold | 3.96 fold | 1.77 fold | 364 | 896 | 270 | 409 | no binding (tested: 55 nM antigen) | 680 | 314 | 1190 |  | > 2 fold | 300 | 307 | 438 | no binding |
| anti-TMEM106B antibody TM-49 (antibody, V domains shown, mouse IgG from hybridoma) VH: QVQLQQPGAELVRPGSSVKLSCKASGYTFTRFWMHWVKQRPIQGLEWIGNIDPSDSQTHYNQKFKDKATLTVDKSSSTAYMQLSSLTSEDSAVYYCARLITVDYAMDYWGQGTSVTVSS VL: QIVLTQSPAIMSASPGEKVTISCSASSSVSYMYWYQQKPGSSPKPWIHRTSNLASGVPVRFSGSGSGTSYSLTISSMEAEDAATYYCQQYHSYPPTFGAGTKLELK | 13.8 fold | 15.6 fold | 21.3 fold | 3030 | 924 | 434 | 473 | no binding (tested: 55 nM antigen) | 15700 | 756 | 16500 | no binding | > 2 fold | 291 | 187 | 613 |  |
| anti-TMEM106B antibody TM-52 (antibody, V domains shown, mouse IgG from hybridoma) VH: QVQLQQPGAELVKPGASVKLSCKASGYTFTNYWMHWVKQRPGQGLDWIGNIDPSDSETHYNQKFKDKATLTVDKVSSTAYMQLSSLTSEDSAVYYCARRGYYGRSPFAYWGQGTLVTVSA VL: ENVLTQSPAIMSASPGEKVTMTCSASSSVSYMHWYQQKSNTSPKLWIYDTSKLASGVPGRFSGSGSGNSYSLTISSAEAEDVATYYCFQGSGYPLTFGAGTKLELK | 22.6 fold | 17.3 fold | 0.67 fold | 1940 | 987 | 341 | 401 | no binding (tested: 55 nM antigen) | 8200 | 451 | 7020 | no binding | > 2 fold | 210 | 227 | 443 |  |
| anti-TMEM106B antibody TM-15 (antibody, V domains shown, mouse IgG from hybridoma) VH: QVQLQQPGAEFVRPGASVKLSCKASGYTFTNYWITWVKQRPGHGLEWIGDIYPGSGNSNYNESFKRKATLTVDTSSSTAYMHLSSQTSEDSAVYFCARKAYGGFPYWGQGTLVTVSA VL: DIQMTQSPASLSVSVGETVTITCRVSENIYNNLAWYQQKQEKSPQLLVFAATNLADGVPSRFSGSGSGTQFSLKINSLQSEDFGTYYCQHFWDTPFTFGSGTKLEIK | 57.7 fold | 31.4 fold | 46.8 fold | 2060 | 938 | 382 | 650 | no binding (tested: 55 nM antigen) | 14300 | 584 | 63100 |  | > 2 fold | 470 | 660 | 1980 | no binding |

More lines, now with the values ahead:

| fold-change over parental HEK293 [1] | fold-change over parental HEK293 (human TMEM106B [2]) | fold-change over parental HEK293 (mouse TMEM106B [3]) | MFI (human TMEM106B [4]) | MFI (human TMEM106B [5]) | MFI (human TMEM106B [6]) | MFI (human TMEM106B [7]) | binding result [8] | MFI (human TMEM106B [9]) | MFI (human TMEM106B [10]) | MFI (human TMEM106B [11]) | binding result (GST (Pierce) [12]) | fold over negative controls (human TMEM106B [13]) | MFI (mouse TMEM106B [14]) | MFI (human TMEM106B [15]) | MFI (human TMEM106B [16]) | binding result (GST (Pierce) [17]) | Binder |
| --- | --- | --- | --- | --- | --- | --- | --- | --- | --- | --- | --- | --- | --- | --- | --- | --- | --- |
| 17.8 fold | 16 fold | 17.5 fold | 305 | 580 | 260 | 381 | no binding (tested: 55 nM antigen) | 314 | 294 | 396 | no binding | > 2 fold | 257 | 159 | 445 |  | anti-TMEM106B antibody TM-50 (antibody, V domains shown, mouse IgG from hybridoma) VH: QVQLKESGPVLVAPSQSLSITCTVSGFSLTNYGVHWVRQPPGKGLEWLGVIWAGGNTNYNSALMSRLSISKDNSKSQVFLKMNSLQTDDTAMYYCAKEAKLLRSYAMDYWGQGTLVTVSA VL: DVQMTQTTSSLSASLGDRVTISCRASQDINNYLYWYQQKPDGTVKLLIYYTSMLHSGVPSRFSGSGSGTDYSLTISNLEQEDIATYFCQQGSTLMYTFGGGTKLEIK |
| 1.25 fold | 4.13 fold | 1.25 fold | 327 | 1100 | 304 | 418 | no binding (tested: 55 nM antigen) | 393 | 294 | 581 |  | > 2 fold | 371 | 520 | 544 | no binding | anti-TMEM106B antibody TM-6 (antibody, V domains shown, mouse IgG from hybridoma) VH: QVQLQQSGAELVKPGASVKLSCKASGYTFTEYTIHWVKQRSGQGLEWIGWFYPGSTYIDYNEKFKDKATLTADKSSSTVYLELSRLTSEDSAVYFCARHEEDYSNWFPFWGQGTLVTVSA VL: DIQMSQSSSYLSVSLGGRVTITCKASDHINNWLAWYQQKPGNAPRLLISGATSLETGVPSRFSGSGSGKDYTLSITSLQTEDVATYYCQQYWSSPYTFGGGTKLEIK |
| 7.74 fold | 10.2 fold | 45.8 fold | 1750 | 298 | 202 | 366 | no binding (tested: 55 nM antigen) | 5630 | 651 | 12100 |  | > 2 fold | 233 | 148 | 514 | no binding | anti-TMEM106B antibody TM-33 (antibody, V domains shown, mouse IgG from hybridoma) VH: EFQLQQSGPELVKPGASVKISCKASGYSFTDYNMNWVKQSNGKSLEWIGVINPNYGTTSYNQKFKGKATLTVDQSSSTAYMQLNSLTSEDSAVYYCASSYWGQGTLVTVSA VL: DIVMTQSQKFMSTTVGDRVSITCKASQNVGTAVAWYQQKPGQSPKLLIYSASNRYTGVPDRFTGSGSGTDFTLTISNMQSEDLADYFCQQYSSYPYTFGGGTKLEIK |
| 64.7 fold | 22.1 fold | 68.7 fold | 1390 |  | 352 | 403 | no binding (tested: 55 nM antigen) | 3680 | 596 | 6060 |  | > 2 fold | 325 | 799 | 527 | no binding | anti-TMEM106B antibody TM-31 (antibody, V domains shown, mouse IgG from hybridoma) VH: QVQLQQSGAELAKPGASVKVSCKASGYTFISYWMNWVKQRPGQGLEWIGYINPTSGYTRYNQKFKDKATLTADKSSSTAYMQLSSLTYEDSAVYYCARSPPTVVLIGYFDYWGQGTTLTVSS VL: DIKMTQSPSSMYASLGERVTFTCKASQDINSYLSWFQQKPGKSPKTLIYRGNGLVDGVPSRFSGSGSGQDYSLTISSLEYEDMGIYYCLQYDEFPFTFASGTKLEIK |
| 2.62 fold | 2.1 fold | 1.63 fold | 305 | 554 | 304 | 393 | no binding (tested: 55 nM antigen) | 317 | 301 | 465 |  | > 2 fold | 370 | 568 | 492 | no binding | anti-TMEM106B antibody TM-8 (antibody, V domains shown, mouse IgG from hybridoma) VH: QIQLVQSGPELKKPGETVKISCKASGYTFTDYPMHWVKQAPGKGFKWMGVIYTDTGEPKYAEVFKGRFAFSLETSASTAYLQINNLKNEDTATYFCVRRLAYWGQGTLVTVSA VL: DIKMTQSPSSMYASLGERVTITCKASQDINSYLSWFQQKPGKSPKTLIFRANRLVDGVPSRFSGSGSGQDYSLTISSLEYEDMGIYYCLQYDEFPLTFGAGTKLEMK |
